± gives the standard error. For some of these results: This sample holds only a part of the variants without activity.

B1: glmS ribozyme (parent)
chain: AUAAAAGCGCCAGAACUACAGAAAUGUAGUUGACGAGGAGGAGGUUUAUCGAAUUUUCGGCGGAUGCCUCCAAA

Common to all, as to settings: with glucosamine-6-phosphate
The variants in data set [1] derive from B1. Description: kcat; higher = faster cleavage; RNA array. In a few lines:
(§1)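 E. coli RNA polymerase transcribed barcoded ribozyme variants in situ on sequenced MiSeq chips, which were tracked via a hybridised Cy3 probe at 37 °C. Tiles were imaged over ~14 h after glucosamine-6-phosphate (40 μM to 10 mM) in HEPES/KCl/Mg(OAc)2 buffer was flowed in. Normalised per-tile medians were fit to one- or two-exponential decays for kobs, and kcat and KM came from weighted Michaelis–Menten fits.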

In data set [2] the parent is B1. Description: self-cleavage kobs at 640 uM GlcN6P; higher = faster cleavage; RNA array. In a few lines:
as §1

In data set [3] the parent is B1. Description: KM; higher = weaker cofactor use; RNA array. The gist of the method: as §1
The variants in data set [4] derive from B1. The data set is described as follows: self-cleavage kobs at 2500 uM GlcN6P; higher = faster cleavage; RNA array. The gist of the method: as §1
The variants in data set [5] derive from B1. Description: self-cleavage kobs at 10000 uM GlcN6P; higher = faster cleavage; RNA array. The gist of the method:
as §1

The variants in data set [6] derive from B1. Description: self-cleavage kobs at 40 uM GlcN6P; higher = faster cleavage; RNA array. In a few lines: as §1
Variants of B1 are the subject of data set [7]. The data set is described as follows: self-cleavage kobs at 160 uM GlcN6P; higher = faster cleavage; RNA array. The gist of the method:
as §1

In the case of G7A U45C, the catalytic constant (kcat) in data set [1] was under 1e-05 s⁻¹. Further, the “self-cleavage kobs at 640 uM GlcN6P” value in data set [2] was under 1e-05 s⁻¹.

Regarding G41C U54G, the kcat in data set [1] amounted to 0.000435 ± 5.6e-05 s⁻¹. The Michaelis-Menten constant (KM) in data set [3] turned out to be 1610 ± 450 µM. Further, the “self-cleavage kobs at 640 uM GlcN6P” value in data set [2] was found to be 0.000123 ± 2.4e-05 s⁻¹. For the same variant, in data set [4], the “self-cleavage kobs at 2500 uM GlcN6P” value was 0.000354 ± 8.9e-05 s⁻¹. Further, in data set [5], the “self-cleavage kobs at 10000 uM GlcN6P” value is 0.000363 ± 4.8e-05 s⁻¹.

For the variant A53U G60A, the kcat in data set [1] is under 1e-05 s⁻¹. In data set [6], the “self-cleavage kobs at 40 uM GlcN6P” value was under 1e-05 s⁻¹.

As for G38A C70A, the kcat in data set [1] is under 1e-05 s⁻¹. Moreover, the “self-cleavage kobs at 40 uM GlcN6P” value in data set [6] was under 1e-05 s⁻¹.

Consider A39G G66A, for which the kcat in data set [1] turned out to be 0.0379 ± 0.019 s⁻¹. In data set [6], the “self-cleavage kobs at 40 uM GlcN6P” value came out at 0.000706 ± 0.00011 s⁻¹. For the same variant, in data set [7], the “self-cleavage kobs at 160 uM GlcN6P” value came to 0.00437 ± 0.0011 s⁻¹. Besides, the “self-cleavage kobs at 640 uM GlcN6P” value in data set [2] came to 0.00601 ± 0.001 s⁻¹. For the same variant, the “self-cleavage kobs at 2500 uM GlcN6P” value in data set [4] was 0.0223 ± 0.0067 s⁻¹. For the same variant, the “self-cleavage kobs at 10000 uM GlcN6P” value in data set [5] came to 0.0342 ± 0.0078 s⁻¹.

For A6U A53U, the kcat in data set [1] turned out to be 0.000209 ± 3.5e-05 s⁻¹. Further, the KM in data set [3] is 2570 ± 1100 µM. The “self-cleavage kobs at 2500 uM GlcN6P” value in data set [4] was found to be 0.000114 ± 1.6e-05 s⁻¹. The “self-cleavage kobs at 10000 uM GlcN6P” value in data set [5] came out at 0.000159 ± 2.3e-05 s⁻¹.

In the case of U47G G59U, the kcat in data set [1] came out at 2.47e-05 ± 4.4e-06 s⁻¹. In addition, the “self-cleavage kobs at 2500 uM GlcN6P” value in data set [4] worked out at 3.31e-05 ± 1.7e-05 s⁻¹. For the same variant, the “self-cleavage kobs at 10000 uM GlcN6P” value in data set [5] is 2.13e-05 ± 1e-05 s⁻¹.

For the variant C58A C68G, the kcat in data set [1] amounted to 3.84e-05 ± 1.3e-05 s⁻¹. Moreover, in data set [7], the “self-cleavage kobs at 160 uM GlcN6P” value was determined as 4.34e-05 ± 1.2e-05 s⁻¹. Moreover, the “self-cleavage kobs at 640 uM GlcN6P” value in data set [2] came out at 6.18e-05 ± 1.1e-05 s⁻¹. Further, the “self-cleavage kobs at 2500 uM GlcN6P” value in data set [4] stood at 4.14e-05 ± 1.2e-05 s⁻¹.

As to A39G A64G, the kcat in data set [1] is 0.127 ± 0.027 s⁻¹. For the same variant, the KM in data set [3] is 5960 ± 1400 µM. Besides, in data set [6], the “self-cleavage kobs at 40 uM GlcN6P” value turned out to be 0.000853 ± 0.00016 s⁻¹. Moreover, the “self-cleavage kobs at 160 uM GlcN6P” value in data set [7] is 0.00322 ± 0.00052 s⁻¹. For the same variant, in data set [2], the “self-cleavage kobs at 640 uM GlcN6P” value was determined as 0.0131 ± 0.0018 s⁻¹. Moreover, in data set [4], the “self-cleavage kobs at 2500 uM GlcN6P” value was found to be 0.0328 ± 0.0078 s⁻¹. For the same variant, the “self-cleavage kobs at 10000 uM GlcN6P” value in data set [5] is 0.0876 ± 0.026 s⁻¹.

As to C16G G40C, in data set [1], the kcat was found to be 0.0003 ± 2.6e-05 s⁻¹. For the same variant, the KM in data set [3] was 1660 ± 360 µM. Further, in data set [2], the “self-cleavage kobs at 640 uM GlcN6P” value was 8.17e-05 ± 2e-05 s⁻¹. In addition, the “self-cleavage kobs at 2500 uM GlcN6P” value in data set [4] is 0.000212 ± 5.8e-05 s⁻¹. For the same variant, in data set [5], the “self-cleavage kobs at 10000 uM GlcN6P” value came out at 0.000252 ± 3.6e-05 s⁻¹.

For G32C C71A, the kcat in data set [1] is 1.79e-05 ± 3.7e-06 s⁻¹.

Take U54C C58G: the kcat in data set [1] was 5.26e-05 ± 4.8e-06 s⁻¹. The KM in data set [3] worked out at 7250 ± 1300 µM. The “self-cleavage kobs at 10000 uM GlcN6P” value in data set [5] was found to be 3.05e-05 ± 1.2e-05 s⁻¹.

For A6U U65G, the kcat in data set [1] was 3.43e-05 ± 1e-05 s⁻¹. Further, in data set [6], the “self-cleavage kobs at 40 uM GlcN6P” value was under 1e-05 s⁻¹. Also, in data set [4], the “self-cleavage kobs at 2500 uM GlcN6P” value was determined as 4.32e-05 ± 1.3e-05 s⁻¹.

For the variant G35U A36C, in data set [1], the kcat is under 1e-05 s⁻¹. The “self-cleavage kobs at 40 uM GlcN6P” value in data set [6] is under 1e-05 s⁻¹. In addition, the “self-cleavage kobs at 160 uM GlcN6P” value in data set [7] is under 1e-05 s⁻¹. For the same variant, the “self-cleavage kobs at 2500 uM GlcN6P” value in data set [4] is under 1e-05 s⁻¹. Moreover, the “self-cleavage kobs at 10000 uM GlcN6P” value in data set [5] was under 1e-05 s⁻¹.

A15C U54G: the kcat in data set [1] was 0.00559 ± 0.0011 s⁻¹. In data set [3], the KM turned out to be 2690 ± 780 µM. In data set [6], the “self-cleavage kobs at 40 uM GlcN6P” value is 0.000104 ± 1.6e-05 s⁻¹. Moreover, in data set [7], the “self-cleavage kobs at 160 uM GlcN6P” value amounted to 0.000285 ± 5.1e-05 s⁻¹. The “self-cleavage kobs at 640 uM GlcN6P” value in data set [2] stood at 0.000903 ± 0.00029 s⁻¹. The “self-cleavage kobs at 2500 uM GlcN6P” value in data set [4] stood at 0.00205 ± 0.00055 s⁻¹. In addition, the “self-cleavage kobs at 10000 uM GlcN6P” value in data set [5] turned out to be 0.00475 ± 0.0006 s⁻¹.

Consider A42G G43A, for which the kcat in data set [1] turned out to be 0.000155 ± 2.1e-05 s⁻¹. The Michaelis constant (KM) in data set [3] was 1440 ± 500 µM. Moreover, the “self-cleavage kobs at 40 uM GlcN6P” value in data set [6] was under 1e-05 s⁻¹. Moreover, in data set [2], the “self-cleavage kobs at 640 uM GlcN6P” value came to 5.32e-05 ± 1.5e-05 s⁻¹. Besides, the “self-cleavage kobs at 2500 uM GlcN6P” value in data set [4] worked out at 8.7e-05 ± 2.3e-05 s⁻¹. For the same variant, in data set [5], the “self-cleavage kobs at 10000 uM GlcN6P” value was found to be 0.000143 ± 2.8e-05 s⁻¹.

Take C10U U54A: the kcat in data set [1] was 4.72e-05 ± 5.3e-06 s⁻¹. Moreover, the “self-cleavage kobs at 40 uM GlcN6P” value in data set [6] was under 1e-05 s⁻¹. For the same variant, in data set [7], the “self-cleavage kobs at 160 uM GlcN6P” value was under 1e-05 s⁻¹. In data set [4], the “self-cleavage kobs at 2500 uM GlcN6P” value was 4.32e-05 ± 2.1e-05 s⁻¹. The “self-cleavage kobs at 10000 uM GlcN6P” value in data set [5] was 4.37e-05 ± 9.7e-06 s⁻¹.

Take C61U U69G: the kcat in data set [1] worked out at 1.8e-05 ± 3.9e-06 s⁻¹.

On to U31C A33U, for which, in data set [1], the kcat was 1.97e-05 ± 2.4e-06 s⁻¹. The “self-cleavage kobs at 10000 uM GlcN6P” value in data set [5] was found to be 1.73e-05 ± 6e-06 s⁻¹.

The values are drawn from the supplement of paper PMC7125110.
